Measurements reported in patent publication US20200148784A1 (AGILVAX, published 2020).

Target: T1, human-xCT ECD3 peptide (human)
T1 construct: Coated at 1 µg/mL
T1 peptide: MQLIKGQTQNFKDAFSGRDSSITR
Experiment: ELISA of subclone supernatant against xCT

B1: 11D1/H10 subclone A1 (antibody)
heavy: QVQLQQSGAELVRPGASVKLSCKALGYTFTDYEMHWVKQTPVHGLEWIGAIHPGSGGTAYNQKFKGKATLTADKSSSTAYMELSSLTSEDSAVYYCTRPLYYRYPYYFDYWGQGTTLTVSSESQSFPNVFPLVSCESPLSDKNLVAMGCLARDFLPSTISFTWNYQNNTEVIQGIRTFPTLRTGGKYLATSQVLLSPKSILEGSDEYLVCKIHYGGKNRDLHVPIPAVAEMNPNVNVFVPPRDGFSGPAPRKSKLICEATNFTPKPITVSWLKDGKLVESGFTTDPVTIENKGSTPQTYKVISTLTISEIDWLNLNVYTCRVDHRGLTFLKNVSSTCAASPSTDILTFTIPPSFADIFLSKSANLTCLVSNLATYETLNISWASQSGEPLETKIKIMESHPNGTFSAKGVASVCVEDWNNRKEFVCTVTHRDLPSPQKKFISKPNEVHKHPPAVYLLPPAREQLNLRESATVTCLVKGFSPADISVQWLQRGQLLPQEKYVTSAPMPEPGAPGFYFTHSILTVTEEEWNSGETYTCVVGHEALPHLVTERTVDKSTGKPTLYNVSLIMSDTGGTCY
light: QIVLTQSPAIMSASPGEKVTISCSASSSVSYMYWYQQKPGSSPKPWIYRTSNLASGVPARFSGSGSGTSYSLTISSMEAEDAATYYCQQYHSYPLTFGAGTKLELKRADAAPTVSIFPPSSEQLTSGGASVVCFLNNFYPKDINVKWKIDGSERQNGVLNSWTDQDSKDSTYSMSSTLTLTKDEYERHNSYTCEATHKTSTSPIVKSFNRNEC
ELISA O.D. 450: ≥ 0.4

B2: 11D1/H10 subclone E1 (antibody)
heavy: B1 heavy
light: B1 light
notes: IgM kappa
ELISA O.D. 450: ≥ 0.4

B3: 11D1/H10 subclone D5 (antibody)
heavy: B1 heavy
light: B1 light
notes: IgM kappa
ELISA O.D. 450: ≥ 0.4

B4: 11D1/H10 subclone A5 (antibody)
heavy: B1 heavy
light: B1 light
notes: IgM kappa
ELISA O.D. 450: ≥ 0.4

B5: 11D1/H10 subclone B9 (antibody)
heavy: B1 heavy
light: B1 light
notes: IgM kappa
ELISA O.D. 450: ≥ 0.4
